The source of these data is patent US20100055125A1.

In the experiment the target is clotting factor VIII (human) (UniProt P00451). In words: cell-based or functional assay.
UniProt P00451, sequence (P00451 20-2351): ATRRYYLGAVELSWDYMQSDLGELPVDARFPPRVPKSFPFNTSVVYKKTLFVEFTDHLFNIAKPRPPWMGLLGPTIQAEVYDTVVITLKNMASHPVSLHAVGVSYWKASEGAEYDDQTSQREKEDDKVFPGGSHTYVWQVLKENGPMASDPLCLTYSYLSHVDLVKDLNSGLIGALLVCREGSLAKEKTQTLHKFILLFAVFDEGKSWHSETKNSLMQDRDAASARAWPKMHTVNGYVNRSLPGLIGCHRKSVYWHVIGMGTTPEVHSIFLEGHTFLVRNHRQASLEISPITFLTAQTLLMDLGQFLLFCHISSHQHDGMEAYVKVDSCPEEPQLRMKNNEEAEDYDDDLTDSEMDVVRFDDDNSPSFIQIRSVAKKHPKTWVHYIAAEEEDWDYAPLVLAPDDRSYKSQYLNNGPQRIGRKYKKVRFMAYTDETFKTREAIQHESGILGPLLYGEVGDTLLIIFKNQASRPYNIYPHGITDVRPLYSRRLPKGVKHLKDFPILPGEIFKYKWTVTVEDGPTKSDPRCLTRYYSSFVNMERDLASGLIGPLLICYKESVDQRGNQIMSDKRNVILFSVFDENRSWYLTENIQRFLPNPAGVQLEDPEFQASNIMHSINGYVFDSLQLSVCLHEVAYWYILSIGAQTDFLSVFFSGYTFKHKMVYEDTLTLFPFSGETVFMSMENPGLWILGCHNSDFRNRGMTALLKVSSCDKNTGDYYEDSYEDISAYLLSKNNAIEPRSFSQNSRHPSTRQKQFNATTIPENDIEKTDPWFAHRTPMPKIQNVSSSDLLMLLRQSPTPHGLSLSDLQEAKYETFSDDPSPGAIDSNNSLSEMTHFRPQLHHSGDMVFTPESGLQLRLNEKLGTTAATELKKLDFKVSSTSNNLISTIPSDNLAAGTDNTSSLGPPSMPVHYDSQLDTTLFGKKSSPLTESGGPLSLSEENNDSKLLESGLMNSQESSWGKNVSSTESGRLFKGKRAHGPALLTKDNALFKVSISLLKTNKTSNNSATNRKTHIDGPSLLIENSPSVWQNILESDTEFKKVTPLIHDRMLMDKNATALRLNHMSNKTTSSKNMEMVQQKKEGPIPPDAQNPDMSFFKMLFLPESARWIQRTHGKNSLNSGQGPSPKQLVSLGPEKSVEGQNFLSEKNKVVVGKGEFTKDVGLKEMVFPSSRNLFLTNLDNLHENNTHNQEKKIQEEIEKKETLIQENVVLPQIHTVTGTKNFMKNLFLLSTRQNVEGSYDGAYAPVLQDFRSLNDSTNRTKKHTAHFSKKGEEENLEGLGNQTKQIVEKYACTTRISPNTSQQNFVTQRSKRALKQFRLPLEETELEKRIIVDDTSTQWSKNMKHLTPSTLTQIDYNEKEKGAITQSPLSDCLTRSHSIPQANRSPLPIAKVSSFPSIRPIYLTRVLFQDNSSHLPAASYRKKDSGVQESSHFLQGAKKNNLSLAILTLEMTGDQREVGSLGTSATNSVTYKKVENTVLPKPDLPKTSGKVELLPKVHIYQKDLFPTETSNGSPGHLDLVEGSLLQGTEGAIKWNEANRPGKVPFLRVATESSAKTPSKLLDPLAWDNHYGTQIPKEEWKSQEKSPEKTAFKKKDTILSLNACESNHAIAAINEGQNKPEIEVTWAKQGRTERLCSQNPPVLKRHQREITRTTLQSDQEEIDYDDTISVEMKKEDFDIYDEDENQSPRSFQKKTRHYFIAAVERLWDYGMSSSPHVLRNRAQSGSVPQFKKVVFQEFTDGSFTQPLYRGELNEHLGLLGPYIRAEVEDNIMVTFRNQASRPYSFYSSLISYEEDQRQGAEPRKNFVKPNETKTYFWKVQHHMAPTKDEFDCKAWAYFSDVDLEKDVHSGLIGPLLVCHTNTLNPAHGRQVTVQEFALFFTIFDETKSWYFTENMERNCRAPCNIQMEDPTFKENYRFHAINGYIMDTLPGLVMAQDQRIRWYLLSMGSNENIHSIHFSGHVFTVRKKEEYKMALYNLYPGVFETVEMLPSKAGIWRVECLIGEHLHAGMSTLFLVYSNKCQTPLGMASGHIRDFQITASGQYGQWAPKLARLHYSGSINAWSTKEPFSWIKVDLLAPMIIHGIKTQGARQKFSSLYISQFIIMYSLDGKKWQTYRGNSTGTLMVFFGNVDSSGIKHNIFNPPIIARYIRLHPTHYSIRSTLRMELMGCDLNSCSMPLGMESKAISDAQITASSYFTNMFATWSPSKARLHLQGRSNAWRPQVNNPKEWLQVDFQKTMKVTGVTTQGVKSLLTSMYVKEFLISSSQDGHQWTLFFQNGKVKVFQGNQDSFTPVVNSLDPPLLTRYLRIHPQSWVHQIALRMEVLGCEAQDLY

“murine monoclonal anti-FVIII antibody ESH8 (American Diagnostica)”: the FVIII activity of normal plasma after adding ESH8 (% of its initial activity) was 32.6 and the FVIII activity of normal plasma after adding ESH8 (% of the initial activity) came to 23.5.
